The stoichiometry N is a count of units in the complex or per binding partner.

This passage reports Kd and stoichiometry N results from paper PMC8376927.

Test [1] has as its target DAPK2_RNTD, full-length human DAPK2 mutant with the C terminus S367STS370 changed to R367NTD370, autophosphorylated (human) (UniProt Q9UIK4). Briefly: AUC; sedimentation velocity, DAPK2_RNTD alone at 25-350 μM; 20 °C, 42,000 rev./min; 50 mM HEPES-NaOH pH 7.5, 150 mM NaCl, 1 mM TCEP; dimer to monomers, KD from the ratios of the peak areas.
In test [2] the target is FAM-ctDAPK2-pT369 peptide (FAM-RRRSSpTS) (human). Briefly: fluorescence polarisation; as a1 but with 100 µM Fusicoccin A (FC-A); apparent KD. On the technique in general: Fluorescence polarisation rises when a labelled molecule tumbles more slowly, as on binding a larger partner.
Test [3] shares this target. Briefly: fluorescence polarisation; 14-3-3γ (160 µM and binary dilution series) incubated 1 h with 50 nM FAM-labelled peptide; 20 mM HEPES-NaOH pH 7.4, 150 mM NaCl, 0.1% Tween 20, 0.1% BSA; one-site-binding model; apparent KD.

Regarding “DAPK2_RNTD, full-length human DAPK2 mutant with the C terminus S367STS370 changed to R367NTD370, autophosphorylated (from UniProt Q9UIK4 1-370) (enzyme)”, in test [1], the Kd was 100000 nM and the stoichiometry N turned out to be 2.
For “Human 14-3-3γ WT (from UniProt P61981 1-247) (natural protein)”, the Kd in test [2] was 4.4 nM; in test [3], 114 nM.
